Legend:
[1] = target: cardiac amyloid deposits (ATTR amyloid) (UniProt P02766); experiment: ex vivo binding to cardiac amyloid in tissue sections, quantified as % of maximum
[2] = target: cardiac amyloid deposits (ATTR amyloid) (UniProt P02766); experiment: ex vivo binding curve on cardiac tissue sections with amyloid (FIG. 5G)
[3] = target: cardiac amyloid deposits (ATTR amyloid) (UniProt P02766); experiment: ex vivo binding curve on cardiac tissue sections with amyloid (FIG. 5G); same value in mass units

An EC50 (read off the curve) [1] of 0.3 µg/mL, a Kd [2] of 1.75 nM and a Kd [3] of 0.26 µg/mL were found for “murine precursor of PRX004 (mPRX004) (antibody)” in this work.

From patent US20230391859A1
